Results taken from patent publication US20220315554A1, “COMPOUNDS COMPRISING A […] LIGAND AND USE THEREOF” (priority 2019, published 2022).
Bridge positions count the residues as written; N and C are the ends. * marks the point of attachment. tMeBn(DOTA-AET) = Cys-Cys bridge (thioethers) carrying DOTA-AET; tMeBn(DOTA-PP) = Cys-Cys bridge (thioethers) carrying DOTA-PP; Hexanoyl = CCCCCC(=O)*

Legend:
Assay in all cases: radioligand displacement, 10 uM compound
Conditions in all cases: remark: other sources report otherwise
[1] = molecular target: T1, CCK1 (CCKA) (h) (human (printed (h))), P32238
T1 chain: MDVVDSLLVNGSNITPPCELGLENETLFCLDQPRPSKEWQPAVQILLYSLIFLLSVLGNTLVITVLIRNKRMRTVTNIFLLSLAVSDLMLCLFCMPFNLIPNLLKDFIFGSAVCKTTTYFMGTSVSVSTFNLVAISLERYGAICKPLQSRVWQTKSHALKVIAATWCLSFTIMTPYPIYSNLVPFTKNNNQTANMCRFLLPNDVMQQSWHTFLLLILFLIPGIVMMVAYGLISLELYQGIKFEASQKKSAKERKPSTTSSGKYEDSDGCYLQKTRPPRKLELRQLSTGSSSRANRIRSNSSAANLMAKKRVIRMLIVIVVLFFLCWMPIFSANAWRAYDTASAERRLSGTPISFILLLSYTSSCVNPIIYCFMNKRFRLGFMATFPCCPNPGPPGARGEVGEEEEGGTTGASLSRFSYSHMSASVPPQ

[2] = molecular target: 5-HT2B (h) (human (printed (h))), P41595
[3] = molecular target: T2, GR (h) (human (printed (h))), P04150
T2 chain: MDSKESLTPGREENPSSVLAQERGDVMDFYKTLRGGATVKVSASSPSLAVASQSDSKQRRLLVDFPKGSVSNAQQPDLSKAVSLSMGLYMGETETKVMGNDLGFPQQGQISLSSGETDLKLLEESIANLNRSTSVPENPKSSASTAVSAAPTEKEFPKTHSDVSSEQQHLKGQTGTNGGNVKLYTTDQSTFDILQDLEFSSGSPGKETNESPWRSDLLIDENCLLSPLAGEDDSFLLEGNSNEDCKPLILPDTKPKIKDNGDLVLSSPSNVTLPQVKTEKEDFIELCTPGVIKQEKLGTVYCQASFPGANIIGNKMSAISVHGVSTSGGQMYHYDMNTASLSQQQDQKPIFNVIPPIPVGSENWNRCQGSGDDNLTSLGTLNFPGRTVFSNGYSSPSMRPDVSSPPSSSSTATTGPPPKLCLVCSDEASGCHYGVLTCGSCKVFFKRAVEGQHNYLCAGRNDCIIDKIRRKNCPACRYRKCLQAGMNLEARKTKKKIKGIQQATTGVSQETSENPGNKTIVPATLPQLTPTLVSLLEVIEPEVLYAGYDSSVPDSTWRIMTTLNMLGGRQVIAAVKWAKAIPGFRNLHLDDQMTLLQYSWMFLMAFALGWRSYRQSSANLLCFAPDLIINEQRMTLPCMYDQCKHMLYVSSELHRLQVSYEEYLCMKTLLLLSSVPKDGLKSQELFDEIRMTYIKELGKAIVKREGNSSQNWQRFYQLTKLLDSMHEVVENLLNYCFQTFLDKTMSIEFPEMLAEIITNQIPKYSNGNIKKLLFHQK

[4] = molecular target: T3, 5-HT1A (h) (human (printed (h))), P08908
T3 chain: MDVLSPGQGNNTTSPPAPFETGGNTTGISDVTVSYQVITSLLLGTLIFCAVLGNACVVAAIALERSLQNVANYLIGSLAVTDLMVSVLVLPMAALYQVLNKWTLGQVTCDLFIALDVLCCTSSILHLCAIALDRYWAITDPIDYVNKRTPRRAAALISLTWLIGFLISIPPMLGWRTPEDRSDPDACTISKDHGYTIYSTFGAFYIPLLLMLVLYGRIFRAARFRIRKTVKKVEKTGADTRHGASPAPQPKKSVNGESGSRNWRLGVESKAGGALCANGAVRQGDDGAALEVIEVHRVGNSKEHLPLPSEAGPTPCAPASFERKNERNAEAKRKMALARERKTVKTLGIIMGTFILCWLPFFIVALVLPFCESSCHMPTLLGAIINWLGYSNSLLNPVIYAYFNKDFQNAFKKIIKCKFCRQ

[5] = molecular target: V1a (h) (human (printed (h))), P37288
[6] = molecular target: beta 1 (h) (human (printed (h))), P08588
[7] = molecular target: 5-HT1B (h) (human (printed (h))), P28222
[8] = molecular target: kappa (h) (KOP) (human (printed (h))), P41145
[9] = molecular target: mu (MOP) (h) (human), P35372
[10] = molecular target: norepinephrine transporter (h) (human (printed (h))), P23975
[11] = molecular target: T4, 5-HT3 (h) (human (printed (h))), P46098
T4 chain: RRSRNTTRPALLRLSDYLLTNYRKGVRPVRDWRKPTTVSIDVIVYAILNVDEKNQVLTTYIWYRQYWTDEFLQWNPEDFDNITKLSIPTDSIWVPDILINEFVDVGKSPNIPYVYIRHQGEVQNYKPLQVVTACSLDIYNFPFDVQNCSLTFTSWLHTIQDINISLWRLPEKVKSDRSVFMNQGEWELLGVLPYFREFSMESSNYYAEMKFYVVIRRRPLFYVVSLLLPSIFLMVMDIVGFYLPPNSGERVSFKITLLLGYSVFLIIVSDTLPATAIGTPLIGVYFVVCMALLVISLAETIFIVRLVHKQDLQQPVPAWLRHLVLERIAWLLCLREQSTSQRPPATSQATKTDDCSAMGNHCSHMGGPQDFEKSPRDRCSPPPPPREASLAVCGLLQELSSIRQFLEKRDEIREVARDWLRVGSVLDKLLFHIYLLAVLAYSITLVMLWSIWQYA

[12] = molecular target: H2 (h) (human (printed (h))), P25021
[13] = molecular target: M3 (h) (human (printed (h))), P20309

Sequence of mu (MOP) (h) (human), P35372 (P35372 whole entry): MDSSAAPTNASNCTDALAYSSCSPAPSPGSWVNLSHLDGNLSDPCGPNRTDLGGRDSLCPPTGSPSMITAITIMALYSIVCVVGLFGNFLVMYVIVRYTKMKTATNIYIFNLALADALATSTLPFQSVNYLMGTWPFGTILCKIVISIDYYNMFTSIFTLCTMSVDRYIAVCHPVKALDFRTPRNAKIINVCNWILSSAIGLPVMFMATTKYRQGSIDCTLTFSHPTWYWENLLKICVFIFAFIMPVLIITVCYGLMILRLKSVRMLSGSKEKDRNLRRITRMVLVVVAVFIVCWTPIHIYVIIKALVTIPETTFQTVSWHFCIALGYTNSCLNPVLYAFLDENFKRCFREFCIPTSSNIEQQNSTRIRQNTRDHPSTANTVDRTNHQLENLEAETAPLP
Sequence of norepinephrine transporter (h) (human (printed (h))), P23975 (P23975 whole entry): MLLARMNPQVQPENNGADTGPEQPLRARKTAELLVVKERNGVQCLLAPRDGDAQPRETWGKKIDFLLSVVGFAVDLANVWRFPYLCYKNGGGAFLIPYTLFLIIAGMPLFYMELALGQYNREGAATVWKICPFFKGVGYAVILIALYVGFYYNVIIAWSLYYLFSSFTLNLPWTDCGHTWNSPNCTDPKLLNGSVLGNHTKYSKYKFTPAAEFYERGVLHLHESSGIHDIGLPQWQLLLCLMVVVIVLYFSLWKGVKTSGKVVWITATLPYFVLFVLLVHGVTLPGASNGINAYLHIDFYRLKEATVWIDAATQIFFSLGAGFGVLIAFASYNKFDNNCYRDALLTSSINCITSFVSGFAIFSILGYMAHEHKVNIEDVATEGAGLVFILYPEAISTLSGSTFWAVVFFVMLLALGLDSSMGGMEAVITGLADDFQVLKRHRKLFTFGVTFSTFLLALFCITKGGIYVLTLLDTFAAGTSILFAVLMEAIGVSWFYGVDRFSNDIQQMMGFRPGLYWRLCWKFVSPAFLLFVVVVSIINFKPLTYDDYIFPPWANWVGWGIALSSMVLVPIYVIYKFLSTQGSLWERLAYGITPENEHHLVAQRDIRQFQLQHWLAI
Sequence of 5-HT1B (h) (human (printed (h))), P28222 (P28222 whole entry): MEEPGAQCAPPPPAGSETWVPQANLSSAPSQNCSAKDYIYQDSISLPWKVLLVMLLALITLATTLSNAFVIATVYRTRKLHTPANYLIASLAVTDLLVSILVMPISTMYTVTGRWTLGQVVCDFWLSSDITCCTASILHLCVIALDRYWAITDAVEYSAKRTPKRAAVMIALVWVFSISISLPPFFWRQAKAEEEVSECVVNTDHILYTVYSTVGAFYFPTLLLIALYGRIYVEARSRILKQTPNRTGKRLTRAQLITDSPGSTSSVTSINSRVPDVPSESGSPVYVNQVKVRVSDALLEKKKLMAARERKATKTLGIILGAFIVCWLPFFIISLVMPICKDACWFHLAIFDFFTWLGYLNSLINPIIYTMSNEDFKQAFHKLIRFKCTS
Sequence of H2 (h) (human (printed (h))), P25021 (P25021 whole entry): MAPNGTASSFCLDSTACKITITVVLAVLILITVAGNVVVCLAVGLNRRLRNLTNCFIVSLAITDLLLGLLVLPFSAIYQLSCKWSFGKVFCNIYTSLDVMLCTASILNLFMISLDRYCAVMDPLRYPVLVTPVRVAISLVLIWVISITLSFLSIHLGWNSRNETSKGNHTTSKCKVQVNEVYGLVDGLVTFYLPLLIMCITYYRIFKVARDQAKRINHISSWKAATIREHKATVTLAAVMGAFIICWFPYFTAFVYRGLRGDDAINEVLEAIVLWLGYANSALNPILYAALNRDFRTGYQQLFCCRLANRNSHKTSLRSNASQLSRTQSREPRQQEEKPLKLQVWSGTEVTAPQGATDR
Sequence of kappa (h) (KOP) (human (printed (h))), P41145 (P41145 whole entry): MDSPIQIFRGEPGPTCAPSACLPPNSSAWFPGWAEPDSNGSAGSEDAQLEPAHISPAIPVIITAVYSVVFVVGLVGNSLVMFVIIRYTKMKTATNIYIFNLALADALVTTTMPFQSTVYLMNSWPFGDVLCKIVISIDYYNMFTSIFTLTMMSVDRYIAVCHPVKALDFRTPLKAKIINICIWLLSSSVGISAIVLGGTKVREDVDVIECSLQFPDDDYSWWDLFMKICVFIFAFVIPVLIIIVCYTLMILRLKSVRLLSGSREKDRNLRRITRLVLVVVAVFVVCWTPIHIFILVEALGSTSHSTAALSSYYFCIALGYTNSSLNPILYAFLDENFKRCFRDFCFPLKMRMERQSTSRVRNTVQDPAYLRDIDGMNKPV

B1: Hex-[Cys(tMeBn(DOTA-PP))-Pro-Pro-Thr-Gln-Phe-Cys]-Asp-NH2 (3BP-3407) (peptide)
peptide: Hexanoyl-CPPTQFCD-NH2
modifications: linker 1-7 via tMeBn(DOTA-PP)
B1 gave a % Inhibition of Specific Binding [1] of 24%, a % Inhibition of Specific Binding [2] of 2% and a % Inhibition of Specific Binding [3] of -2%. For the same binder, the % Inhibition of Specific Binding [4] was -3%, the % Inhibition of Specific Binding [5] was 16% and the % Inhibition of Specific Binding [6] was 4%. The % Inhibition of Specific Binding [7] was -11%, the % Inhibition of Specific Binding [8] was 7% and the % Inhibition of Specific Binding [9] was 2%. The % Inhibition of Specific Binding [10] was -8%, the % Inhibition of Specific Binding [11] was 2% and the % Inhibition of Specific Binding [12] was -5%. The % Inhibition of Specific Binding [13] was 10%.

B2: Hex-[Cys(tMeBn(DOTA-AET))-Pro-Pro-Thr-Gln-Phe-Cys]-OH (3BP-3554) (peptide)
peptide: Hexanoyl-CPPTQFC-OH
modifications: linker 1-7 via tMeBn(DOTA-AET)
B2 was tested, and the % Inhibition of Specific Binding [1] was 16%, the % Inhibition of Specific Binding [2] was 3% and the % Inhibition of Specific Binding [3] was 0%. It also gave a % Inhibition of Specific Binding [4] of -5%, a % Inhibition of Specific Binding [5] of 1% and a % Inhibition of Specific Binding [6] of -13%. It also gave a % Inhibition of Specific Binding [7] of 8%, a % Inhibition of Specific Binding [8] of 10% and a % Inhibition of Specific Binding [9] of -10%. The % Inhibition of Specific Binding [10] was -5%, the % Inhibition of Specific Binding [11] was 4% and the % Inhibition of Specific Binding [12] was -16%. The % Inhibition of Specific Binding [13] was 1%.
